One molecule from patent US8003854B2, “GRG32: a novel EPSP synthase gene conferring herbicide resistance” (Athenix Corp., priority 2006, dated 2011) can be followed below.

For this assay, the system named is E. coli cells. Briefly: Glyphosate screen: growth of pRSF1b clones on M63+ plates with glyphosate. In kind it is cell-based. To be noted: two days at 37° C. As to the method: The pRSF1b clones were plated onto M63+ plates containing antibiotic and either 0 mM or 50 mM glyphosate. Growth was scored after two days growth at 37° C.

B1: GRG32: glyphosate-resistant EPSP synthase; predicted translation product of grg32 (SEQ ID NO:2), expressed from clone pAX1950 in pRSF1b (protein)
chain: MTASASWTARKGQPLQGSLTIPGDKSVSHRAVMFAALADGVSHIDGFLEGEDTRATAAIFSQMGVRIETPSPSQRIVHGVGVDGLQAPAGPLDCGNAGTGMRLLAGLLAAQPFDAVMVGDESLSRRPMRRVTGPLAQMGAKIDTEADGTPPLRVHGGQPLHGIDFASPVASAQVKSAVLLAGLYAQGETSVTEPHPTRDYSERMLRAFGVEIEFSPGKARLRGGQRLRATDIAVPADFSSAAFFLVAASIIPGSALTLRQVGLNPRRTGLLAALRLMGADIREENHAEQGGEAVADLVVRHAPLHGAEIPEALVPDMIDEFPALFVAAAAAQGNTIVRGAAELRVKESDRLAAMATGLRSLGVQVDETEDGATIHGGHELGSGTIESHGDHRIAMAFAIAGQLSSGEVRINDIANVATSFPNFDGIARTAGFNLG
modifications: Isolated from soil sample
As to B1, the “resistance to 50 mM glyphosate in E. coli cells” value is reported as “confer resistance”.
